Results from doi:10.1101/2020.02.05.935528.

Molecular target: Nitrosopumilus maritimus 4-hydroxybutyryl-CoA dehydratase (Nitrosopumilus maritimus)
Test: crystal structure

stoichiometry N: 4
Substance: Nitrosopumilus maritimus 4-hydroxybutyryl-CoA dehydratase (enzyme)
